Source: patent publication US20190336574A1 (TRUSTEES OF PRINCETON UNIVERSITY, published 2019)
Changes are numbered by the printed parent chain. Names may count otherwise. Where no end group is shown, it is not given here. CFP = cyan fluorescent protein

Key:
[1] = target: His-SND1 (16-339), SN1/2 domains, wild type (human) (UniProt Q7KZF4); assay: GST titration pull-down: GST-MTDH (386-407) on glutathione resin, SND1 (SN1/2) at 10, 3, 1, 0.5, 0.25, 0.12 (the sheet prints mM, paragraph 254 says µM), SDS-PAGE, Coomassie blue
[2] = target: TC-FLASH-SND1 (tetracysteine peptide fused to SND1 (16-339), labelled with FlAsH) (human) (UniProt Q7KZF4); assay: FRET, 0.2 µM CFP-MTDH titrated with TC-FLASH-SND1 (0.25-8 µM)
[3] = target: T1, HA-SND1, full-length human, wild type (human, UniProt Q7KZF4 1-910); assay: competition in co-IP from 293T cells with HA-SND1 and MYC-MTDH (m36 is the competitor); peptide at 50 uM; the sheet prints IP: MYC, the legend says anti-HA [26B, 26C, 26D]
T1 construct: Full-length, HA-tagged; Expressed in HEK293T cells, tested in lysate; also called HA-tagged SND1; WT HA-SND1
T1 sequence: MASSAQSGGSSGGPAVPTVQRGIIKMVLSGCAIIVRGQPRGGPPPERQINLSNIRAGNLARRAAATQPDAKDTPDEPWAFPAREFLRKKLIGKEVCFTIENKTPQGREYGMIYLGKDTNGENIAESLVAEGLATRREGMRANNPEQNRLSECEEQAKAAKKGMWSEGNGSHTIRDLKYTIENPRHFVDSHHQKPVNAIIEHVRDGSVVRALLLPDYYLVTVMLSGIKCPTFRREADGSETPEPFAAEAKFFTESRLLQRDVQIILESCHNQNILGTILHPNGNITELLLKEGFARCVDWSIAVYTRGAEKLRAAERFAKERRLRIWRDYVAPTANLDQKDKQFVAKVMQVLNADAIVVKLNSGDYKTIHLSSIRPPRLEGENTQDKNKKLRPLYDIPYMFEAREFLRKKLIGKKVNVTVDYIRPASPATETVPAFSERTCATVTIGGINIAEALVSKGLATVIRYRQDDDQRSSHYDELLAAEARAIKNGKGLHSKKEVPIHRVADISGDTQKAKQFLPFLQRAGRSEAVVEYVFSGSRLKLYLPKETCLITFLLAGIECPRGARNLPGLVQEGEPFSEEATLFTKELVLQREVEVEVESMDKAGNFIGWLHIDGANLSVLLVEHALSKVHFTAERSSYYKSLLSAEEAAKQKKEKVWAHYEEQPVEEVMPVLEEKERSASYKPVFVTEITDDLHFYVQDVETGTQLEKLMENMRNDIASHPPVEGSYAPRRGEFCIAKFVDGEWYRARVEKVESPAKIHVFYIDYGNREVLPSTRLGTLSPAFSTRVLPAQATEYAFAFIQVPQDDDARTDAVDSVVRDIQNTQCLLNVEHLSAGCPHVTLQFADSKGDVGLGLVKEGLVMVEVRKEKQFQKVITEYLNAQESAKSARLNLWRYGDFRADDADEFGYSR
Method: 293 T cells were co-transfected with HA-SND1 and MYC-MTDH. After 48 hours, the cells were collected and subject to immunoprecipitation assay. Cell lysate was incubated with anti-HA antibody or IgG overnight followed by a two hour incubation with Protein A/G beads to pull down HA-SND1 protein. The beads were washed with lysis buffer and split into five fractions.
The elution fractions and beads were collected for western blot. (FIGS. 26C and 26D) Cell lyaste was split into 6 fractions. One of the fractions was incubated with IgG and the rest were incubated with anti-HA antibody plus either buffer or indicated peptides. After 24 hours, the lysate was incubated with Protein A/G beads then the beads was washed followed by wash buffer. 50 uM of peptides was used in all the assays.

[4] = target: T2, endogenous human SND1 (human breast cancer cells, MDA-MB-231) (human, UniProt Q7KZF4 2-910); assay: competition in endogenous co-IP from MDA-MB-231 lysate (endogenous MTDH, m58, is the competitor); peptide at 50 uM; the sheet prints IP: MTDH, the legend says anti-SND1 [27B]
T2 construct: Endogenous protein in cell lysate; also called endogenous SND1 protein
T2 sequence: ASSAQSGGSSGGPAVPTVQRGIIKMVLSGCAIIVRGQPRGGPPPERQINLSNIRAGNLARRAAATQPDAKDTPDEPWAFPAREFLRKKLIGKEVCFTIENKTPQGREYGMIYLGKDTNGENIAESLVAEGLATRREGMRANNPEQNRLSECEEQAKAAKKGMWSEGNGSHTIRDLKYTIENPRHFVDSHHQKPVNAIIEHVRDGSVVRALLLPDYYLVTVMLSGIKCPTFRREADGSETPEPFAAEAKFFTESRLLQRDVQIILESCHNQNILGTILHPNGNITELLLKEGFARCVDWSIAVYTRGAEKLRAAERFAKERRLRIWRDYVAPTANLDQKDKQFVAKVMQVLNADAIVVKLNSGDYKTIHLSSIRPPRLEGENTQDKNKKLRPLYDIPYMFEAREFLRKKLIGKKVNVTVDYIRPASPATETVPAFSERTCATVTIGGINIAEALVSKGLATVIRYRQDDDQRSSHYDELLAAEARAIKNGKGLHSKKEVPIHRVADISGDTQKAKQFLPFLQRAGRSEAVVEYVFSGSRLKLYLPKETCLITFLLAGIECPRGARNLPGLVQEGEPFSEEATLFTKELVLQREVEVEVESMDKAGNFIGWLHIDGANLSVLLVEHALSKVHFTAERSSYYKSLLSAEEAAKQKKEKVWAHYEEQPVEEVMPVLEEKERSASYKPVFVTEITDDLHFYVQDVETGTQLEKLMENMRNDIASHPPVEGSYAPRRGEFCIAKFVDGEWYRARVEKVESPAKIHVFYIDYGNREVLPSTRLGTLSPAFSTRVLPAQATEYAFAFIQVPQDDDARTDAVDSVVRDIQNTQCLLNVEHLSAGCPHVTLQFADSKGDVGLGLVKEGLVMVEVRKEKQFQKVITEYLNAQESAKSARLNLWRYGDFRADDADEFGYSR
Method: Breast cancer cells MDA-MB231 were collected and subjected to IP assay. (FIG. 27A) Cell lysate was incubated with anti-SND1 antibody or IgG overnight followed by 2 hr incubation with Protein A/G beads to pull down endogenous SND1 protein. The beads were washed with lysis buffer and split into 5 fractions. Each fraction was eluted with buffer or indicated peptides for 30 min. The elution fractions and beads were collected for WB. (FIG. 27B) Cell lyaste was split into 5 fractions, and incubated with anti-SND1 antibody plus either buffer or indicated peptides. After 24 hr, the lysate was incubated with Protein A/G beads then the beads were washed in wash buffer.
The interaction interruption effects was confirmed by endogenous immunoprecipitation (IP) of a breast cancer cell line. Briefly, cell lysates from the breast cancer cell line MDA-MB-231 were collected and subjected to IP assay. FIG. 27A—Cell lysate was incubated with anti-SND1 antibody or IgG overnight followed by 2 hr incubation with Protein A/G beads to pull down endogenous SND1 protein. The beads was washed with lysis buffer and split into 5 fractions. Each fraction was eluted with buffer or indicated peptides for 30 min. The elution fractions and beads were collected for WB. FIG. 27B—Cell lyaste was split into 5 fractions, and incubated with anti-SND1 antibody plus either buffer or indicated peptides. […]

[5] = target: T1, HA-SND1, full-length human, wild type; assay: anti-HA co-IP (as printed on the sheet) from HEK293T lysate, western blot
Excerpt: The proteins bound to GS4B were examined on SDS-PAGE and visualized by Coomassie blue staining. […] The bound proteins were examined as in (FIG. 22A). For both (FIG. 22A) and (FIG. 22B), experiments were repeated three times; representative results are shown. The normalized percentage of binding was averaged from three experiments; mean±SEM was shown below the data. (FIG. 22C) HEK293T cells were transfected with human HA-SND1, WT Myc-MTDH or Myc-MTDH with indicated single point mutation. […] (FIG. 22D) HEK293T cells were transfected with human Myc-MTDH, WT HA-SND1 or mutant HA-SND1 with indicated single point mutations or deletions. […]
Immunoprecipitation and western blot: For in vivo immunoprecipitation (IP) experiments, cultured cells were washed in cold PBS and lysed in lysis buffer (20 mM Tris pH 7.4, 0.15 M NaCl, 1 mM EDTA, 1 mM EGTA, 1% Tx-100, 0.0025 M Na2P2O7, 1 mM β-glycerolphosphate, 1 mM Na3VO4, and 1 mM NaF) with an EDTA-free protease inhibitor mixture (Roche Applied Science) and PMSF. Cell lysates were then incubated on ice for 10 min, centrifuged, and precleared by incubating with protein A/G beads (Santa Cruz Biotechnology) for 1 h at 4° C. For IP bead preparation, 30 μl of protein A/G beads were incubated with 5 μg of antibodies for 2 h at 4° C. […]

[6] = target: T1, HA-SND1, full-length human, wild type; assay: co-IP (anti-Myc) from HEK293T lysates, western blot
[7] = target: human AGO2 (ectopically expressed in HEK293T cells) (human, UniProt Q9UKV8 1-859); assay: as above
Chain of human AGO2 (ectopically expressed in HEK293T cells) (Q9UKV8 whole entry): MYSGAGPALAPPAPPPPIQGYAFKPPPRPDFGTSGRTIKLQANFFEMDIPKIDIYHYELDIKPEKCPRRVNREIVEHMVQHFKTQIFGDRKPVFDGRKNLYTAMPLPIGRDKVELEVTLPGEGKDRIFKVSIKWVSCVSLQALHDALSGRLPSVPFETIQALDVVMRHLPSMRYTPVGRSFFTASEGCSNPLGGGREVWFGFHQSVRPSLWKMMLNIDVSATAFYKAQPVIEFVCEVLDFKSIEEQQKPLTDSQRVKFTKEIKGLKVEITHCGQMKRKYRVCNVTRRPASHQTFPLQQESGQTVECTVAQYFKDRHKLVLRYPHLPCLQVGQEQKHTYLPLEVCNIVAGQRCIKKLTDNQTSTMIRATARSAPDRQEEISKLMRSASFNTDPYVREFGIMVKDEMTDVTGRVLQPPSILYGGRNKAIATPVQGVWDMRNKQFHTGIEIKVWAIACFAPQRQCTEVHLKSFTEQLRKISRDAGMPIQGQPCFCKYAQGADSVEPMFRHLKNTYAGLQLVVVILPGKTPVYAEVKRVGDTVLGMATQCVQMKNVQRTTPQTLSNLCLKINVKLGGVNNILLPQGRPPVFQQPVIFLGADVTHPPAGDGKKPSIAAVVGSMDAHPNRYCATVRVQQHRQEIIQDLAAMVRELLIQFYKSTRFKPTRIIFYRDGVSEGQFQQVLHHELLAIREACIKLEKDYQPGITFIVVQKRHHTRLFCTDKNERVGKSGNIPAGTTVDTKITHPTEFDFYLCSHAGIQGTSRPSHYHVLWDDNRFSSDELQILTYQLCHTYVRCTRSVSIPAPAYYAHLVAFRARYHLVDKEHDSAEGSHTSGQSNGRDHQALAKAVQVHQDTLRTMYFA

Question: For PAE (397-399)→SQ, which Estimated Binding Affinity [1] is on record?
Answer: 0.8 µM

Question: {CFP}-SSADPNSDWNAPAEEWGNWVDE (peptide, not shown: large carriers, also: fused to CFP, whose letters are not given here) [CFP-MTDH fusion protein] was tested. Which Kd [2] did it give?
Answer: 900 nM

Question: Does PNSDWNAPAEEWGNW (also called wild type MTDH peptide) [Peptide-wt (PNSDWNAPAEEWGNW)] bind [3]?
Answer: binds

Question: Does PNSDWNAPAEEWGNW (also called wild type MTDH peptide) [Peptide-wt (PNSDWNAPAEEWGNW)] bind [4]?
Answer: binds

B1: Myc-MTDH E399R, full-length human (other)
chain: MAARSWQDELAQQAEEGSARLREMLSVGLGFLRTELGLDLGLEPKRYPGWVILVGTGALGLLLLFLLGYGWAAACAGSRKKRRSPPRKREEAAAVPAAAPDDLALLKNLRSEEQKKKNRKKLSEKPKPNGRTVEVAEGEAVRTPQSVTAKQPPEIDKKNEKSKKNKKKSKSDAKAVQNSSRHDGKEVDEGAWETKISHREKRQQRKRDKVLTDSGSLDSTIPGIENTITVTTEQLTTASFPVGSKKNKGDSHLNVQVSNFKSGKGDSTLQVSSGLNENLTVNGGGWNEKSVKLSSQISAGEEKWNSVSPASAGKRKAEPSAWSQDTGDANTNGKDWGRSWSDRSIFSGIGSTAEPVSQSTTSDYQWDVSRNQPYIDDEWSGLNGLSSADPNSDWNAPAREWGNWVDEERASLLKSQEPIPDDQKVSDDDKEKGEGALPTGKSKKKKKKKKKQGEDNSTAQDTEELEKEIREDLPVNTSKTRPKQEKAFSLKTISTSDPAEVLVKNSQPIKTLPPATSTEPSVILSKSDSDKSSSQVPPILQETDKSKSNTKQNSVPPSQTKSETSWESPKQIKKKKKARRET
notes: Full-length, Myc-tagged; also called SPM21
Question: Does B1 bind [5]?
Answer: binds

B2: Myc-MTDH TPM2 (E399R, E400R, W401D), full-length human (other)
chain: B1 chain with E400R, W401D
notes: Full-length, Myc-tagged; also called TPM2 MTDH
Question: Which results are given for B2?
Answer: binding result [6]: no binding; binding result [7]: binds

B3: Myc-MTDH E400R, full-length human (other)
chain: B1 chain with R399E, E400R
notes: Full-length, Myc-tagged; also called SPM22
Question: Does B3 bind [5]?
Answer: binds

B4: Myc-MTDH TPM1 (D389R, D393R, W394D), full-length human (other)
chain: B1 chain with D389R, D393R, W394D, R399E
notes: Full-length, Myc-tagged; also called TPM1 MTDH
Question: Does B4 bind [6]?
Answer: no binding

Question: Does B4 bind [7]?
Answer: binds
